Target: anti-CD19 CAR having an scFv derived from FMC63 (expressed on T cells) (Mus musculus (Mouse), UniProt P01644 1-106)
Assay: cell-based or functional assay

Chain of anti-CD19 CAR having an scFv derived from FMC63 (expressed on T cells) (VH, as listed by the source, chain 1 of 2): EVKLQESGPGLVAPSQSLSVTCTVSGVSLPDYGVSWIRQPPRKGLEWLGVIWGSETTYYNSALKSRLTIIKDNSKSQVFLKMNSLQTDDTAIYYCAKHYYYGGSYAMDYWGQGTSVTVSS
Chain of anti-CD19 CAR having an scFv derived from FMC63 (expressed on T cells) (P01644 other isoform, or with tags, fused parts or gaps, chain 2 of 2): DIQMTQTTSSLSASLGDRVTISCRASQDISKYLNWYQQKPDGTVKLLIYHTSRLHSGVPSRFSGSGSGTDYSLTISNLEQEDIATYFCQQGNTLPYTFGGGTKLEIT

B1: Anti-ID B-1 (FMC63-derived scFv-specific anti-idiotype antibody) (antibody, mouse IgG2a, kappa, V domains shown)
VH: EVQLQQSGPELVKPGASVKMSCKASGYTFTDYYMKWVKQCHGKSLEWIGDINPNNGGTDYNQNFKGKATLTVDKSSSTAYMQLNSLTSEDSAVYYCAREGNNYGSRDAMDYWGQGTSVTVSS
VL: QIVLTQSPALMSASPGEKVTMTCSASSGVIYMYWYQQKPRSSPKPWIYLTSNLASGVPARFSGSGSGTSYSLTISSMEAEDAATYYCQQWSSNPLTFGAGTKLELKR
- fold expansion of CAR-expressing (EGFRt+) CD4+ T cells cultured alone with anti-ID B-1 conjugated beads, up to 9 days: > 60 fold
